The chains are these.
B1: peptide HD2 (from tick evasin EVA4) / CXCL14 (biotinylated, synthetic) (parent)
chain 1: EEDDYTAYAPLTCYFT
chain 2: SKCKCSRKGPKIRYSDVKKLEMKPKYPHCEEKMVIITTKSVSRYRGQEHCLHPKLQSTKRFIKWYNAWNEKRRVYEE
B2: peptide HD2 (from tick evasin EVA4) / CXCL11 (biotinylated, synthetic) (parent)
chain 1: EEDDYTAYAPLTCYFT
chain 2: FPMFKRGRCLCIGPGVKAVKVADIEKASIMYPSNNCDKIEVIITLKENKGQRCLNPKSKQARLIIKKVERKNF
B3: peptide HD2 (from tick evasin EVA4) / CCL4 (biotinylated, synthetic) (parent)
chain 1: EEDDYTAYAPLTCYFT
chain 2: APMGSDPPTACCFSYTARKLPRNFVVDYYETSSLCSQPAVVFQTKRSKQVCADPSESWVQEYVYDLELN

One experiment covers variants of B1. The settings on record: with CXCL14 (biotinylated, synthetic); scale: log2.
With chain 1 D3L, the enrichment was -8.51.
On the same count and under the same terms, as for chain 1 D3K, the figure is -3.62; as for chain 1 D3C, -8.16.
Regarding chain 1 D3V, the enrichment was -7.6.
The same measure, in the same setting: as for chain 1 D3H, the figure is -5.23; as for chain 1 D3W, -5.18.
The same measure, in the same setting: as for chain 1 D3Q, the figure is -3.25; as for chain 1 D3R, -5.71; as for chain 1 D3M, -6.1.
Consider chain 1 D3A, for which the enrichment was -5.29.
Consider chain 1 D3S, for which the enrichment was -7.81.
The same measure, in the same setting: as for chain 1 E2K, the figure is -3.41.
Consider chain 1 E2A, for which the enrichment is -5.18.
Still for that read-out and setting: as for chain 1 E2C, the figure is -8.27.
For the variant chain 1 E2H, the enrichment was -5.9.
Regarding chain 1 E2P, the enrichment was -5.31.
The same measure, in the same setting: in the case of chain 1 E2R it was -5.39; in that of chain 1 E2Q, -3.16; in that of chain 1 A7C, -8.1.
As to chain 1 A9P, the enrichment was -6.07.
As for chain 1 A9C, the enrichment was -8.35.
For the variant chain 1 A9R, the enrichment is -6.78.
As to chain 1 F15D, the enrichment is -6.86.
As for chain 1 F15T, the enrichment was -5.59.
Still for that read-out and setting: in the case of chain 1 F15E it was -7.19; in that of chain 1 F15P, -5.62; in that of chain 1 F15K, -5.27.
On the same count and under the same terms, as for chain 1 E1N, the figure is -6.84; as for chain 1 E1K, -4.33; as for chain 1 E1C, -8.01.
On to chain 1 E1P, for which the enrichment is -5.8.
For chain 1 E1R, the enrichment is -6.24.
Consider chain 1 E1A, for which the enrichment was -5.59.
Still for that read-out and setting: in the case of chain 1 E1G it was -5.5; in that of chain 1 E1M, -5.07.
Take chain 1 E1H: the enrichment was -6.24.
As for chain 1 C13Q, the enrichment was -7.64.
chain 1 C13Y: the enrichment was -7.01.
Regarding chain 1 C13L, the enrichment was -9.57.
Same read-out and setting: as for chain 1 C13I, the figure is -6.44.
The same measure, in the same setting: as for chain 1 C13K, the figure is -7.38; as for chain 1 C13M, -7.78.
As to chain 1 C13H, the enrichment was -6.91.
Same read-out and setting: in the case of chain 1 C13R it was -8.81; in that of chain 1 C13F, -6.89.
Still for that read-out and setting: as for chain 1 D4G, the figure is -4.48; as for chain 1 D4H, -6.03; as for chain 1 D4R, -5.35.
Turning to chain 1 D4C, the enrichment is -7.5.
The same measure, in the same setting: in the case of chain 1 D4T it was -6.14.
Still for that read-out and setting: as for chain 1 D4K, the figure is -5.14.
Consider chain 1 D4A, for which the enrichment is -6.34.
For the variant chain 1 D4Q, the enrichment is -4.74.
Still for that read-out and setting: as for chain 1 D4V, the figure is -8.11; as for chain 1 D4L, -9.04; as for chain 1 L11E, -6.43.
On the same count and under the same terms, in the case of chain 1 L11K it was -5.25; in that of chain 1 L11G, -8.51; in that of chain 1 L11P, -6.36.

Variants of B2 are the subject of a further experiment. The settings on record: with CXCL11 (biotinylated, synthetic); scale: log2.
As to chain 1 E2P, the enrichment is -4.19.
For chain 1 E2C, the enrichment was -7.15.
Regarding chain 1 E2Q, the enrichment is -2.04.
On the same count and under the same terms, in the case of chain 1 E2R it was -4.27; in that of chain 1 Y14E, -5.9.
With chain 1 Y14D, the enrichment was -4.67.
The same measure, in the same setting: in the case of chain 1 Y14I it was -4.41; in that of chain 1 Y14S, -6.81.
In the case of chain 1 Y14N, the enrichment is -4.04.
On the same count and under the same terms, in the case of chain 1 Y14P it was -5.99; in that of chain 1 Y14Q, -5.19; in that of chain 1 Y14R, -7.23.
Same read-out and setting: in the case of chain 1 Y14K it was -5.3; in that of chain 1 Y14M, -6.11; in that of chain 1 T12K, -4.72.
In the case of chain 1 T12G, the enrichment is -7.44.
For chain 1 P10C, the enrichment is -6.86.
Turning to chain 1 P10K, the enrichment is -4.1.
As to chain 1 P10Q, the enrichment was -3.53.
The same measure, in the same setting: in the case of chain 1 P10Y it was -5.7.
Take chain 1 P10R: the enrichment is -6.22.
On the same count and under the same terms, as for chain 1 P10F, the figure is -6.55; as for chain 1 A9K, -3.76.
Still for that read-out and setting: in the case of chain 1 A9D it was -5.37; in that of chain 1 A9C, -7.23.
Same read-out and setting: as for chain 1 Y8C, the figure is -6.82.
chain 1 Y8K: the enrichment was -3.21.
Regarding chain 1 Y8E, the enrichment was -3.32.
On the same count and under the same terms, in the case of chain 1 Y8P it was -5; in that of chain 1 Y8R, -5.32.
The same measure, in the same setting: in the case of chain 1 Y8Q it was -3.5; in that of chain 1 Y5K, -2.74.
On to chain 1 Y5M, for which the enrichment was -4.78.
Still for that read-out and setting: as for chain 1 Y5T, the figure is -4.8; as for chain 1 Y5D, -4.19.
Turning to chain 1 Y5A, the enrichment was -4.21.
Still for that read-out and setting: as for chain 1 Y5S, the figure is -6.24; as for chain 1 Y5V, -6.41; as for chain 1 Y5P, -3.87.
Still for that read-out and setting: in the case of chain 1 Y5Q it was -2.5; in that of chain 1 Y5G, -4.25; in that of chain 1 Y5R, -4.19.
Same read-out and setting: in the case of chain 1 Y5E it was -0.621; in that of chain 1 Y5C, -6.3.
Regarding chain 1 E1C, the enrichment was -6.89.
Regarding chain 1 E1R, the enrichment is -5.11.
In the case of chain 1 E1K, the enrichment is -3.21.
Same read-out and setting: in the case of chain 1 D4A it was -5.22; in that of chain 1 D4E, -3.08.
For the variant chain 1 D4T, the enrichment was -5.01.
Same read-out and setting: as for chain 1 D4H, the figure is -4.91.
For chain 1 D4N, the enrichment is -5.1.
On the same count and under the same terms, in the case of chain 1 D4G it was -3.36; in that of chain 1 D4K, -4.01; in that of chain 1 D4C, -6.38.
As to chain 1 D4R, the enrichment was -4.23.
chain 1 T16R: the enrichment was -6.32.
The same measure, in the same setting: as for chain 1 T16H, the figure is -4.21.
Still for that read-out and setting: in the case of chain 1 D3K it was -2.5.
As for chain 1 D3Q, the enrichment is -2.12.
For the variant chain 1 D3E, the enrichment was -1.84.
Same read-out and setting: as for chain 1 D3V, the figure is -6.48.
Still for that read-out and setting: in the case of chain 1 D3R it was -4.59.
As for chain 1 D3P, the enrichment was -4.65.
Still for that read-out and setting: as for chain 1 D3A, the figure is -4.17; as for chain 1 D3M, -4.98; as for chain 1 D3H, -4.1.
On the same count and under the same terms, in the case of chain 1 D3C it was -7.03; in that of chain 1 F15N, -3.87.
chain 1 A7C: the enrichment was -6.98.
As for chain 1 C13W, the enrichment is -6.78.
Same read-out and setting: as for chain 1 C13G, the figure is -7.57; as for chain 1 C13Y, -5.88.
On the same count and under the same terms, as for chain 1 C13K, the figure is -6.26; as for chain 1 C13R, -7.69; as for chain 1 C13I, -5.31.
Still for that read-out and setting: as for chain 1 C13D, the figure is -6.29; as for chain 1 L11N, -5.58; as for chain 1 L11Q, -3.39.
In the case of chain 1 L11G, the enrichment was -7.39.
Same read-out and setting: in the case of chain 1 L11E it was -5.3.

In a further experiment the parent is B3. The settings on record: with CCL4 (biotinylated, synthetic); scale: log2.
For chain 1 A9D, the enrichment was -7.8.
For chain 1 A9C, the enrichment was -9.66.
The same measure, in the same setting: in the case of chain 1 D4C it was -8.81; in that of chain 1 C13R, -10.1.
Still for that read-out and setting: as for chain 1 C13H, the figure is -8.22.
Still for that read-out and setting: as for chain 1 D3K, the figure is -4.93; as for chain 1 D3C, -9.47.
For chain 1 Y5Q, the enrichment was -4.93.
The same measure, in the same setting: as for chain 1 Y5A, the figure is -6.64; as for chain 1 Y5K, -5.17; as for chain 1 Y5N, -7.28.
As for chain 1 Y5G, the enrichment is -6.68.
Consider chain 1 E2C, for which the enrichment is -9.58.
chain 1 P10K: the enrichment was -6.53.
With chain 1 P10R, the enrichment is -8.65.
Same read-out and setting: in the case of chain 1 P10M it was -8.07; in that of chain 1 P10I, -8.01; in that of chain 1 P10H, -7.52.
Same read-out and setting: in the case of chain 1 P10N it was -7.59.
Still for that read-out and setting: as for chain 1 T6C, the figure is -10.7.
On to chain 1 E1C, for which the enrichment was -9.32.
The same measure, in the same setting: as for chain 1 Y8C, the figure is -9.25.
Consider chain 1 Y8G, for which the enrichment is -8.28.
For chain 1 Y8Q, the enrichment is -5.93.
With chain 1 Y8K, the enrichment is -5.64.
As for chain 1 Y8R, the enrichment was -7.75.
As for chain 1 Y8M, the enrichment is -8.06.

Values taken from article PMC11969024, “Development of chemokine network inhibitors using combinatorial saturation mutagenesis” (Communications Biology, 2025).
